Measurements: article PMC5772516
Several values for one entry are separate records, joined by “and”; a condition that tells them apart may be missing. Identical values can stand only once.

Columns and labels:
[1] = molecular target: vascular endothelial growth factor (VEGF165) (human); experiment: SDS-PAGE; VEGF solution before reduction (non-reducing)
[2] = molecular target: vascular endothelial growth factor (VEGF165) (human); experiment: solid-state nanopore translocation; 20 nM VEGF, pH 7.6, V = +500 mV, ~5.5 nm pore in 12 nm SiNx; 1 M KCl, 50 mM phosphate buffer, 5 mM EDTA, 22.0 ± 0.5 °C; then 0.5 mM TCEP added in the same pore (events converge into one lower-amplitude group, 92%)
[3] = molecular target: vascular endothelial growth factor (VEGF165) (human); experiment: solid-state nanopore translocation; 0.2 nM to 100 nM VEGF, pH 7.2, V = −500 mV, ~5–6.5 nm pore; 1 M KCl, 50 mM phosphate buffer, 5 mM EDTA, 22.0 ± 0.5 °C; 0.5 mM TCEP added afterwards shifts the events to single-level group A (71%)

“vascular endothelial growth factor (VEGF165) (natural protein)” was tested, and the stoichiometry N [1] was 2 and 3, the stoichiometry N [2] was 2 and 3 and the percent of translocation events in group B (dimer) at 20 nM [3] was 12%. For the same substance, the percent of translocation events in level B and B/A (dimeric state) at 0.2 nM [3] was 6%, the percent of translocation events in level B and B/A (dimeric state) at 100 nM [3] was 59% and the percent of translocation events with a B to A multi-level pattern at 20 nM [3] was 28%. For the same substance, the stoichiometry N [3] was 2.
